From paper PMC2172602

Target: αL-YFP/β2 (LFA-1 with dimerizing YFP on αL) on K562 cells (UniProt P20701)
Assay: FRET or BRET

Sequence of UniProt P20701 (P20701 whole entry, looked up): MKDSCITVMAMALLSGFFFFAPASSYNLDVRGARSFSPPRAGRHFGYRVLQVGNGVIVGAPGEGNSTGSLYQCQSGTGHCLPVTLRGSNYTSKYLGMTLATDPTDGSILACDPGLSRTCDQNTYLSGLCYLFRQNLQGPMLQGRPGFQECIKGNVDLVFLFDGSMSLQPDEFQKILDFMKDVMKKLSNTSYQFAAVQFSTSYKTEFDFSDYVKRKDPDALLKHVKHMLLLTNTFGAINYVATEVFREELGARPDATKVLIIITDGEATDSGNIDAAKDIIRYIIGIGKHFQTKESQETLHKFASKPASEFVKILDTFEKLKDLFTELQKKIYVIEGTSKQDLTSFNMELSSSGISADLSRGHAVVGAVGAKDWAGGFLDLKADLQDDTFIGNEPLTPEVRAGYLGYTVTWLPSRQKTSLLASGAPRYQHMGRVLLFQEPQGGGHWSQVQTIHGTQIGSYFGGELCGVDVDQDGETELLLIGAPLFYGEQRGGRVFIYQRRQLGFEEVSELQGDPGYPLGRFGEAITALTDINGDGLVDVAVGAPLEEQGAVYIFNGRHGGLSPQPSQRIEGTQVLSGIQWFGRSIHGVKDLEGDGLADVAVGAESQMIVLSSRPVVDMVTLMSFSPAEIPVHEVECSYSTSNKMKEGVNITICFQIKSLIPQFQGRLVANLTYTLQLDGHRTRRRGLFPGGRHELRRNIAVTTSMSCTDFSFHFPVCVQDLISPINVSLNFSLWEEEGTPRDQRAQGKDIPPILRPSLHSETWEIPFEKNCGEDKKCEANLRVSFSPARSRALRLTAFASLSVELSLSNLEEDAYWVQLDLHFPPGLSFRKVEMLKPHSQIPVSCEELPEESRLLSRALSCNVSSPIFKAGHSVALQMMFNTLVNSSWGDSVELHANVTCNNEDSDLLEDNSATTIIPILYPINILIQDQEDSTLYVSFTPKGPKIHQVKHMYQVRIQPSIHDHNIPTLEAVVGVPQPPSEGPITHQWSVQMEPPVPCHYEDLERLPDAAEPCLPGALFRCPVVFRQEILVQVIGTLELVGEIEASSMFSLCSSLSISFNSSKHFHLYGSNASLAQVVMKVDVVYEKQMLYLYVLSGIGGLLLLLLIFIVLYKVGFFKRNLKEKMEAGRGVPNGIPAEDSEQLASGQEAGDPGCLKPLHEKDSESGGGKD

- K (analogous to the dissociation constant of microclusters): 532
Substance: αL-CFP/β2 (LFA-1 with dimerizing CFP on αL) on K562 cells (from UniProt P20701 26-1170; P05107 23-769) (receptor)
